{
  "source": "paper PMC3328432",
  "about": "(PLoS Biology, 2012)",
  "binders": {"B1": {"name": "human alanine-glyoxylate aminotransferase (AGT), wild type, major allele haplotype (enzyme, UniProt P21549 1-392, looked up)", "chain": "MASHKLLVTPPKALLKPLSIPNQLLLGPGPSNLPPRIMAAGGLQMIGSMSKDMYQIMDEIKEGIQYVFQTRNPLTLVISGSGHCALEAALVNVLEPGDSFLVGANGIWGQRAVDIGERIGARVHPMTKDPGGHYTLQEVEEGLAQHKPVLLFLTHGESSTGVLQPLDGFGELCHRYKCLLLVDSVASLGGTPLYMDRQGIDILYSGSQKALNAPPGTSLISFSDKAKKKMYSRKTKPFSFYLDIKWLANFWGCDDQPRMYHHTIPVISLYSLRESLALIAEQGLENSWRQHREAAAYLHGRLQALGLQLFVKDPALRLPTVTTVAVPAGYDWRDIVSYVIDHFDIEIMGGLGPSTGKVLRIGLLGCNATRENVDRVTEALRAALQHCPKKKL", "modifications": "pyridoxal-5'-phosphate (PLP) covalently bound to Lys209", "notes": "Alanine-glyoxylate aminotransferase (AGT, EC 2.6.1.44), human, major allele haplotype; C-terminus at Leu392; called the complete protein; 86 kDa homodimer; In the import assay in fibroblasts the protein was EGFP-tagged (pEGFP-C1 derived); the functional row uses this molecule; also called AGT(wt); wt-EGFP-AGT (in the import assay); source: E. coli BL21(DE3) RIL, purified (Ni-NTA, TEV cleavage, …)"}},
  "key": {"[1]": {"molecular_target": "the molecule itself", "experiment": "SEC-MALS; analytical gel filtration and static light scattering (MiniDAWN); complex formed by mixing purified Pex5p(C) and AGT; single components also run"}, "[2]": {"molecular_target": "B1", "experiment": "ITC", "details": "both partners purified"}, "[3]": {"molecular_target": "B1", "experiment": "ITC", "details": "both partners purified", "remark": "listed apart in the source"}, "[4]": {"molecular_target": "B1", "experiment": "SEC-MALS; analytical gel filtration and static light scattering (MiniDAWN); complex formed by mixing purified Pex5p(C) and AGT; single components also run", "details": "both partners purified"}},
  "data": [
    {"binder": "B1", "values": [
      {"measurement": "stoichiometry N", "setting": "[1]", "result": 2}
    ]},
    {"binder": "C-terminal cargo-binding segment of human Pex5p (residues 315-639) (domain or fragment, Peroxisomal import receptor Pex5p, human, residues 315-639 (seven TPR segments and C-terminal helical bundle); In the functional rows the receptor was the endogenous Pex5p of human fibroblasts; this molecule stands for it; also called Pex5p(C); Pex5p receptor; source: E. coli BL21(DE3) RIL, purified (Ni-NTA, TEV cleavage, second Ni-NTA, gel filtration); not shown: His6, N-terminal, cleaved; GST, …) not shown", "values": [
      {"measurement": "stoichiometry N", "setting": "[2]", "result": 1},
      {"measurement": "Kd", "setting": "[3]", "result": "3.5 ± 0.4", "unit": "µM"},
      {"measurement": "stoichiometry N", "setting": "[4]", "result": "1 Pex5p(C) per AGT chain"}
    ]}
  ]
}
